{"source": "paper PMC6092318", "about": "“Keap1–MCM3 interaction is a potential coordinator of molecular machineries of antioxidant response and genomic DNA replication in metazoa” (Scientific Reports, 2018)", "molecules": {"B1": {"name": "HA-MCM-BP (mouse, baculovirus) (natural protein, UniProt Q8R3C0 1-642, looked up)", "chain": "MPCGEDWLSHPLGIVQGFFAQNGVNPDWEKKVIEYFKEKLKENNAPKWVPSLNEVPLHYLKPNSFVKFRCMIQDMFDPEFYMGIYETVNQNTKARVLHFGKYRDVAECGPQQELDLSSPRSTTSERQTFYCVPVPGESSWVKEAYVNANQARVSPSTSYTPSRHKRSYEDDEDMDLQPSKQKEQHPGSRQAGGLGGLHWCGEPKRLETEASSGQQLNTLNLSSPFDLNFPLPGEKGPACLVKVYEDWDCFKVNDVLELYGVLSVDPVLSVLNSEERDASALLDPMECTDMAEEQRVHSPPASLVPRIHVILAQKLQHINPLLPTCLNKEESRSCQFVSNFMSELSPVRAELLGFLTHALLGDSLAAEYLILHLISTVYTRRDVLPLGKFTVNLSGCPQNSTFTEHLYRIIQHLVPASFRLQMTIENMNQLKLIPHKDYTANRLVSGLLQLPNNTSLVIDETLLEQGQLDTPGVHNVTALSNLITWQKVDYDFSYHQMEFPCNINVLITSEGRSLLPADCQIHLQPQLIPPNMEEYMNGLLSAVLPSVLNKFRIYLTLLRFLDYNLSDDITKAVEDDFVEMRKDDPQSITADDLHQLLVVARFLSLSVGQTTLSRERWLRAKQLELSRKARLQQQKSVNGNEL", "notes": "MCM-BP, mouse; cDNA cloned into pFastBac1; source: Sf9, baculovirus infected, in extract"}, "B2": {"name": "FLAG-MCM3 (mouse, wild type, baculovirus) (natural protein, UniProt P25206 1-812, looked up)", "chain": "MAGTVVLDDVELREAQRDYLDFLDDEEDQGIYQNKVRELISDNQYRLIVSVNDLRRKNEKRANRLLNNAFEELVAFQRALKDFVASIDATYAKQYEEFYIGLEGSFGSKHVSPRTLTSCFLSCVVCVEGIVTKCSLVRPKVVRSVHYCPATKKTIERRYSDLTTLVAFPSSSVYPTKDEENNPLETEYGLSVYKDHQTITIQEMPEKAPAGQLPRSVDVILDDDLVDKVKPGDRIQVVGTYRCLPGKKGCYTSGTFRTVLIACNVKQMSKDIQPAFSADDIAKIKKFSKTRSKDVFEQLARSLAPSIHGHDYVKKAILCLLLGGVERELENGSHIRGDINILLIGDPSVAKSQLLRYVLCTAPRAIPTTGRGSSGVGLTAAVTTDQETGERRLEAGAMVLADRGVVCIDEFDKMSDMDRTAIHEVMEQGRVTIAKAGIHARLNARCSVLAAANPVYGRYDQYKTPMENIGLQDSLLSRFDLLFIMLDQMDPEQDREISDHVLRMHQYRAPGEQDGDALPLGSSVDILATDDPDFTQDDQQDTRIYEKHDSLLHGTKKKKEKMVSAAFMKKYIHVAKIIKPTLTQESAAYIAEEYSRLRSQDSMSSDTARTSPVTARTLETLIRLATAHAKARMSKTVDLQDAEEAVELVQYAYFKKVLEKEKKRKKASEDESDLEDEEEKSQEDTEQKRKRRKTHAKDGESYDPYDFSEAETQMPQVHTPKTDDSQEKTDDSQETQDSQKVELSEPRLKAFKAALLEVFQEAHEQSVGMLHLTESINRNREEPFSSEEIQACLSRMQDDNQVMVSEGIVFLI", "notes": "MCM3, mouse; cDNA cloned into pFastBac1; also called WT MCM3; source: Sf9, baculovirus infected, in extract; not shown: FLAG, N-terminal, kept"}}, "key": {"[1]": {"biological_target": "FLAG-MCM3 (mouse MCM3 expressed in CHO-EBNALT85 cells) (mouse) (UniProt P25206)", "assay": "co-IP; anti-FLAG M2 beads on whole cell, nuclear and cytoplasmic extracts of FLAG-MCM3 expressing CHOEBNALT85 cells, 150 mM KCl, Western blot"}, "[2]": {"biological_target": "B2", "assay": "SEC; Superose 6 10/300 GL of the strep-Keap1 - FLAG-MCM3 tandem purified complex, 100 mM KCl buffer; densitometry of the Coomassie stained gel", "details": "partners not purified"}, "[3]": {"biological_target": "T1, strep-Keap1 (mouse, wild type, baculovirus) (mouse, UniProt Q9Z2X8 1-624)", "T1 construct": "Keap1, mouse; cDNA cloned into pFastBac1; also called strep tagged Keap1; strp-Keap1; source: Sf9, baculovirus infected, in extract; not shown: Strep-tag II, N-terminal, kept", "T1 sequence (Q9Z2X8 whole entry)": "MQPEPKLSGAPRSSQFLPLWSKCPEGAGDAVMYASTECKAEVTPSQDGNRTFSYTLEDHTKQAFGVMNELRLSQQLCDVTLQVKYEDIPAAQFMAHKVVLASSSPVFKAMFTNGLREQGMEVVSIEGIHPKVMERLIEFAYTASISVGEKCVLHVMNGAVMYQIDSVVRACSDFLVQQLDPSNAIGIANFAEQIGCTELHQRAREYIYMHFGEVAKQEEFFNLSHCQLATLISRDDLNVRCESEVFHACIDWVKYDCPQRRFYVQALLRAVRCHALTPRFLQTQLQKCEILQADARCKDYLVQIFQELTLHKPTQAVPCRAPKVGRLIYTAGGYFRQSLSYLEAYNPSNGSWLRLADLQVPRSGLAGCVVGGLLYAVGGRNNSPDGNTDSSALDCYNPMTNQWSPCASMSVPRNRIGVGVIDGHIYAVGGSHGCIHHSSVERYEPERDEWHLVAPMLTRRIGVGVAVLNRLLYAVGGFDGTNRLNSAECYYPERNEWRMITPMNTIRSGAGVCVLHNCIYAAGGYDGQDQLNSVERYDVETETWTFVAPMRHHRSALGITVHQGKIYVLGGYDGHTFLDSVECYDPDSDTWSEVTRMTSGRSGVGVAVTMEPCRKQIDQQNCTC", "assay": "SEC; Superose 6 10/300 GL of the strep-Keap1 - FLAG-MCM3 tandem purified complex, 100 mM KCl buffer; densitometry of the Coomassie stained gel", "details": "partners not purified"}}}
{"molecule": "Keap1 (endogenous, CHO cells) (natural protein)", "values": [{"measurement": "percent of soluble MCM3 and Keap1 pulled down together", "setting": "[1]", "result": "5 to 10", "unit": "%"}]}
{"molecule": "B1", "values": [{"measurement": "stoichiometry N", "setting": "[2]", "result": "~1"}]}
{"molecule": "B2", "values": [{"measurement": "stoichiometry N", "setting": "[3]", "result": "~1"}]}
